Consider 5 molecules from patent US20210324076A1 (AMPHIVENA THERAPEUTICS, published 2021).

“And” between values parts separate entries of the source, which are not always exact repeats. Identical values can stand only once.

In assay [1] the target is T1, human CD3 (human, UniProt P07766 23-207; P09693 23-182; P04234 22-171; P20963 22-164).
T1 construct: whole, on cells; also called hu CD3; CD3 on human T cells
Nature of the assay: flow cytometry titration on human CD3+ T cells/Jurkat, anti-His detection. As for the experimental part: Cells were incubated with 100 μL of serial dilutions of CD33/CD3 2×2 T-cell engagers. After washing three times with FACS buffer the cells were incubated with 0.1 mL of […] mouse monoclonal anti-His antibody in the same buffer for 45 min on ice. After a second washing cycle, the cells were incubated with 0.1 mL of […] FITC-conjugated goat anti-mouse IgG antibodies under the same conditions as before. As a control, cells were incubated with the anti-His IgG followed by the FITC-conjugated goat anti-mouse IgG antibodies without anti-CD33 2×2 T-cell engagers. […] The fluorescence of 1×10⁴ living cells was measured using a Beckman-Coulter FC500 MPL flow cytometer using the MXP software (Beckman-Coulter, Krefeld, Germany) or a Millipore Guava EasyCyte flow cytometer using the Incyte software (Merck Millipore, Schwalbach, Germany). Mean fluorescence intensities of the cell samples were calculated using CXP software (Beckman-Coulter, Krefeld, Germany) or Incyte software (Merck Millipore, Schwalbach, Germany). After subtracting the fluorescence intensity values of the cells stained with the secondary and tertiary reagents alone the values were used for calculation of the KD values with the equation for one-site binding (hyperbola) of the GraphPad Prism (version 6.00 for Windows, GraphPad Software, La Jolla Calif. USA). […]
A general note: Flow cytometry measures light scatter and fluorescence of single cells or particles in a stream.

The target of assay [2] is T1, human CD3. Nature of the assay: cell-based or functional assay.
Assay [3] deals with T2, human CD33 (human, UniProt P20138 18-364). Nature of the assay: cell-based or functional assay.
T2 sequence (P20138 18-364): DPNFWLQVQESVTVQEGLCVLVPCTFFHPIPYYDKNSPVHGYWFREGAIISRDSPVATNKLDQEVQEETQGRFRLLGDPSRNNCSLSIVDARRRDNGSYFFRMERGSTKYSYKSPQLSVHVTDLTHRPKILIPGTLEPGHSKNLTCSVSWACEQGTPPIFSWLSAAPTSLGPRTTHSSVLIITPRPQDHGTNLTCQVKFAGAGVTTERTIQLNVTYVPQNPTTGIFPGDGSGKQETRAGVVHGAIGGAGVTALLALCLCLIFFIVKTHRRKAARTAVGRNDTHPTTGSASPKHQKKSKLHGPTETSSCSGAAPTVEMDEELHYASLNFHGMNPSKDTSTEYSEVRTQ
Assay [4] has as its target T2, human CD33. The experiment in a line: cell-based or functional assay. The source holds these as a separate data set.
Assay [5] concerns the target T2, human CD33. Nature of the assay: cell-based or functional assay. This is another data set of the same source.
Assay [6] deals with T2, human CD33. Nature of the assay: cell-based or functional assay. This is another data set of the same source.

T1 sequence (P07766 23-207, chain 1 of 4): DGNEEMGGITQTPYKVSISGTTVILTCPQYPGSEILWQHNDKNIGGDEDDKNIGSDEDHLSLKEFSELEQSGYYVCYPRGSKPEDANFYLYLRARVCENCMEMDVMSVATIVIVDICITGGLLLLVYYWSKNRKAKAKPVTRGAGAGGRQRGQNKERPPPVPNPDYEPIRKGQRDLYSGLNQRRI
T1 sequence (P09693 23-182, chain 2 of 4): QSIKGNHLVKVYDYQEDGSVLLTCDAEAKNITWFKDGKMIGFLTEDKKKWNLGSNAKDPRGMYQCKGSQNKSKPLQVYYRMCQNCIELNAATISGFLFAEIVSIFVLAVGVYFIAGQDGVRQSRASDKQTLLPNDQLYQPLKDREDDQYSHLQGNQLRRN
T1 sequence (P04234 22-171, chain 3 of 4): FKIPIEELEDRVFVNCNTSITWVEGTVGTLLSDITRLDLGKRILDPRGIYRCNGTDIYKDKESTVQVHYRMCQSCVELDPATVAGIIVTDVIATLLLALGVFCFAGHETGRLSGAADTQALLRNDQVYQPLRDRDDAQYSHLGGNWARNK
T1 sequence (P20963 22-164, chain 4 of 4): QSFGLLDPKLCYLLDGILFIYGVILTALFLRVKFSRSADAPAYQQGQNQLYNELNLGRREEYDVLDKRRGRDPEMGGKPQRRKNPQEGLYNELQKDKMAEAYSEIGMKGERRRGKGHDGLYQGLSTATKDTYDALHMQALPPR

B1: CD33/CD3 2×2 T-cell engager 18 (bispecific antibody)
chain: EVQLVESGGGLVQPGGSLRLSCAASGFTFSTYAMNWVRQAPGKGLEWVGRIRSKYNNYATYYADSVKDRFTISRDDSKNSLYLQMNSLKTEDTAVYYCARHGNFGNSYVSYFAYWGQGTLVTVSSGGSGGSQSVLTQPPSVSGAPGQRVTISCTGSSSNIGAGYDVHWYQQLPGTAPKLLIYGNSNRPSGVPDRFSGSKSGTSASLAITGLQAEDEADYYCQSYDSSLSDVVFGGGTKLTVLGGSGQVQLVQSGAEVKKPGESLKISCKGSGYSFTSYWIGWVRQMPGKGLEWMGIIYPGDSDTRYSPSFQGQVTISADKSISTAYLQWSSLKASDTAMYYCARHKRGSDAFDIWGQGTTVTVSSGGSGGSDIQMTQSPSSLSASVGDRVTITCRSSTGAVTTSNYANWVQQKPGKAPKALIGGTNKRAPGVPSRFSGSLIGDKATLTISSLQPEDFATYYCALWYSNLWVFGQGTKVEIKAAAGSHHHHHH
notes: Homodimer; His-tagged form
Regarding B1, in the assay with human CD3 [1], the dissociation constant (Kd) (in general, a measure of binding affinity in units of concentration) was determined as 11900 pM.

B2: CD33/CD3 2×2 T-cell engager 12 (bispecific antibody)
chain: DIQMTQSPSSLSASVGDRVTITCRSSTGAVTTSNYANWVQQKPGKAPKALIGGTNKRAPGVPSRFSGSLIGDKATLTISSLQPEDFATYYCALWYSNLWVFGQGTKVEIKGGSGGSQVQLVQSGAEVKKPGASVKVSCKASGYTFTSYDINWVRQAPGQGLEWMGWMNPNSGNTGFAQKFQGRVTMTRDTSTSTVYMELSSLRSEDTAVYYCARDRAVTDYYYGMDVWGQGTLVTVSSGGSGQSVLTQPPSASGTPGQRVTISCSGSRSNIGSNTVNWYQQLPGTAPKLLIYGNNQRPSGVPDRFSGSKSGTSASLAISGLQSEDEADYYCATWDDSLIGWVFGGGTKLTVLGGSGGSEVQLVESGGGLVQPGGSLRLSCAASGFTFSTYAMNWVRQAPGKGLEWVGRIRSKYNNYATYYADSVKDRFTISRDDSKNSLYLQMNSLKTEDTAVYYCARHGNFGNSYVSYFAYWGQGTLVTVSSAAAGSHHHHHH
Regarding B2, in the assay with human CD3 [2], the “CD25 Induction EC50 (PBMC, 24 h)” value is 6 pM and the “CD69 Induction EC50 (PBMC, 24 h)” value was determined as 3 pM. In addition, the “IC50 lysis of KG-1 cells with human T cells, E:T 5:1, 24 h” value (from here on “IC50 lysis of KG-1 cells … 24 h”) in the assay with human CD33 [3] is around 0.01 pM. Besides, in the assay with human CD33 [4], the “EC50 cytotoxicity on HL-60, E:T 5:1, 20-24 h” value is 1.3 pM and 137 pg/mL; the “EC50 cytotoxicity on KG-1, E:T 5:1, 20-24 h” value is 1.2 pM and 126 pg/mL; the “EC50 cytotoxicity on U-937, E:T 5:1, 20-24 h” value was 0.8 pM and 84 pg/mL; the “EC50 cytotoxicity, mean of HL-60, U-937, KG-1” value (from here on “EC50 cytotoxicity, mean”) was 1.1 pM and 116 pg/mL.

B3: CD33/CD3 2×2 T-cell engager 14 (bispecific antibody)
chain: DIQMTQSPSSLSASVGDRVTITCRSSTGAVTTSNYANWVQQKPGKAPKALIGGTNKRAPGVPSRFSGSLIGDKATLTISSLQPEDFATYYCALWYSNLWVFGQGTKVEIKGGSGGSQVQLVQSGAEVKKPGASVKVSCKASGYTFTSYDINWVRQAPGQGLEWMGWMNPNSGNTGFAQKFQGRVTMTRDTSTSTVYMELSSLRSEDTAVYYCARDRANTDFSYGMDVWGQGTLVTVSSGGSGQSVLTQPPSASGTPGQRVTISCSGSRSNIGSNTVNWYQQLPGTAPKLLIYGNNQRPSGVPDRFSGSKSGTSASLAISGLQSEDEADYYCATWDDSLIGWVFGGGTKLTVLGGSGGSEVQLVESGGGLVQPGGSLRLSCAASGFTFSTYAMNWVRQAPGKGLEWVGRIRSKYNNYATYYADSVKDRFTISRDDSKNSLYLQMNSLKTEDTAVYYCARHGNFGNSYVSYFAYWGQGTLVTVSSAAAGSHHHHHH
Regarding B3, the “EC50 on HL-60 (cytotoxicity)” value with human CD33 [5] turned out to be 11.6 pM. Further, in the assay with human CD3 [2], the “CD25 Induction EC50 (PBMC, 24 h)” value is 10 pM and the “CD69 Induction EC50 (PBMC, 24 h)” value came out at 7 pM. In the assay with human CD33 [4], the “EC50 cytotoxicity on HL-60, E:T 5:1, 20-24 h” value was 1.6 pM and 168 pg/mL; the “EC50 cytotoxicity on KG-1, E:T 5:1, 20-24 h” value is 2.6 pM and 273 pg/mL; the “EC50 cytotoxicity on U-937, E:T 5:1, 20-24 h” value is 3.6 pM and 378 pg/mL; the “EC50 cytotoxicity, mean” value is 2.6 pM and 273 pg/mL.

B4: CD33/CD3 2×2 T-cell engager 16 (bispecific antibody)
chain: DIQMTQSPSSLSASVGDRVTITCRSSTGAVTTSNYANWVQQKPGKAPKALIGGTNKRAPGVPSRFSGSLIGDKATLTISSLQPEDFATYYCALWYSNLWVFGQGTKVEIKGGSGGSQVQLVQSGAEVKKPGASVKVSCKASGYTFTSYDINWVRQAPGQGLEWMGWMNPNSGNTGFAQKFQGRVTMTRDTSTSTVYMELSSLRSEDTAVYYCARDRANTDYSLGMDVWGQGTLVTVSSGGSGQSVLTQPPSASGTPGQRVTISCSGSRSNIGSNTVNWYQQLPGTAPKLLIYGNNQRPSGVPDRFSGSKSGTSASLAISGLQSEDEADYYCATWDDSLIGWVFGGGTKLTVLGGSGGSEVQLVESGGGLVQPGGSLRLSCAASGFTFSTYAMNWVRQAPGKGLEWVGRIRSKYNNYATYYADSVKDRFTISRDDSKNSLYLQMNSLKTEDTAVYYCARHGNFGNSYVSYFAYWGQGTLVTVSSAAAGSHHHHHH
As for B4, in the assay with human CD33 [6], the “EC50 calcein-release lysis of HL-60, E:T 25:1, 30 min” value was 4.8 pM; the “EC50 calcein-release lysis of HL-60, E:T 25:1, 60 min” value is 2.5 pM; the “EC50 calcein-release lysis of HL-60, E:T 25:1, 120 min” value is 1.6 pM; the “EC50 calcein-release lysis of HL-60, E:T 25:1, 180 min” value was 1.6 pM. Further, in the assay with human CD33 [6], the “EC50 calcein-release lysis of HL-60, E:T 25:1, 240 min” value is 1.5 pM and the “EC50 calcein-release lysis of HL-60, E:T 25:1, 300 min” value is 1.6 pM. In the assay with human CD3 [2], the “CD25 Induction EC50 (PBMC, 24 h)” value was determined as 1 pM and the “CD69 Induction EC50 (PBMC, 24 h)” value is 2 pM. Moreover, in the assay with human CD33 [3], the “IC50 lysis of KG-1 cells (separate experiment)” value is 5 pM and the “IC50 lysis of KG-1 cells … 24 h” value is around 0.5 pM. Moreover, in the assay with human CD33 [4], the “EC50 cytotoxicity on HL-60, E:T 5:1, 20-24 h” value was 1.5 pM and 158 pg/mL; the “EC50 cytotoxicity on KG-1, E:T 5:1, 20-24 h” value was 1.8 pM and 189 pg/mL; the “EC50 cytotoxicity on U-937, E:T 5:1, 20-24 h” value is 1.9 pM and 200 pg/mL; the “EC50 cytotoxicity, mean” value is 1.7 pM and 179 pg/mL.

B5: CD33/CD3 2×2 T-cell engager 19 (bispecific antibody)
chain: DIQMTQSPSSLSASVGDRVTITCRSSTGAVTTSNYANWVQQKPGKAPKALIGGTNKRAPGVPSRFSGSLIGDKATLTISSLQPEDFATYYCALWYSNLWVFGQGTKVEIKGGSGGSQVQLVQSGAEVKKPGASVKVSCKASGYTFTSYYMHWVRQAPGQGLEWMGIINPSGGSTSYAQKFQGRVTMTRDTSTSTVYMELSSLRSEDTAVYYCARDVVPAAIDYYGMDVWGQGTTVTVSSGGSGQSVLTQPPSASGTPGQRVTISCSGSSSNIGSNTVNWYQQLPGTAPKLLIYSDNQRPSGVPDRFSGSKSGSSASLAISGLQSDDEADYYCATWDDSLNGAVFGGGTKLTVLGGSGGSEVQLVESGGGLVQPGGSLRLSCAASGFTFSTYAMNWVRQAPGKGLEWVGRIRSKYNNYATYYADSVKDRFTISRDDSKNSLYLQMNSLKTEDTAVYYCARHGNFGNSYVSYFAYWGQGTLVTVSSAAAGSHHHHHH
Turning to B5, in the assay with human CD3 [2], the “CD25 Induction EC50 (PBMC, 24 h)” value was determined as 9 pM and the “CD69 Induction EC50 (PBMC, 24 h)” value came out at 5 pM. The “IC50 lysis of KG-1 cells … 24 h” value with human CD33 [3] was around 5 pM.
